Assay results as given in patent US20140105903A1 (Harvard, published 2014).
Each block holds one molecule with its values, some of them ahead of it.

How the values were obtained:
[1] = molecular target: ANG binding sites on ANG receptor expressing LNCaP cells; test: radio receptor assay, 125I-ANG on LNCaP cells at 4 C, Scatchard analysis; second site
[2] = molecular target: ANG binding sites on ANG receptor expressing LNCaP cells; test: radio receptor assay, 125I-ANG on LNCaP cells at 4 C, Scatchard analysis
[3] = molecular target: T1, Angiogenin (human ANG) (human, UniProt P03950 25-147, iodine-125 label in the radio receptor assay; coupled to Sepharose in the affinity chromatography); test: method not named at this place; Example 4 names ELISA and equilibrium dialysis
T1 construct: also called free ANG
T1 sequence (P03950 25-147 limits assumed): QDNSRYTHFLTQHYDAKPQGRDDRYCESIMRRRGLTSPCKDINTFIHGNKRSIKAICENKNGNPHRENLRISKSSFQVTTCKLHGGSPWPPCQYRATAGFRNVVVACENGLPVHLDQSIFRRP

Kd [1]: 170 nM | Kd [2]: 0.45 nM
Molecule: Angiogenin (human ANG) (from UniProt P03950 25-147) (ligand)

Kd [3]: 200 nM
B1: Plexin B2 peptide GTSSEYDSILVEINKRVK (SEQ ID NO: 1) (peptide)
peptide: GTSSEYDSILVEINKRVK
notes: Chemically synthesized peptide from the region of Plexin B2 between residues 316 and 449
